These results are taken from publication PMC11440250 (iScience, 2024).

This data set concerns the molecule itself. In words: cross-linking.

B1: Flag-PKM2 K207R (enzyme)
chain: not shown
Consider B1, for which the binding result is recorded as “binds”.
